# B1: gold-binding fusion protein EMT003 (protein G' - linker - gold-binding peptide EMT015) (other)
# chain: MTYKLILNGKTLKGETTTEAVDAATAEKVFKQYANDNGVDGEWTYDDATKTFTVTEKPEVIDASELTPAVTTYKLVINGKTLKGETTTEAVDAATAEKVFKQYANDNGVDGEWTYDDATKTFTVTEKPEVIDASELTPAVTTYKLVINGKTLKGETTTKAVDAETAEKAFKQYANDNGVDGVWTYDDATKTFTVTEGGGGSGGGGSGGGGSASGGGMHGKTQATSGTIQSMHGKTQATSGTIQSMHGKTQATSGTIQSMHGKTQATSGTIQSMHGKTQATSGTIQSMHGKTQATSGTIQSMHGKTQATSGTIQS
# notes: also called EMT-03; Gold fusion protein
# Tests used:
# [1] = molecular target: T1, recombinant SARS-CoV-2 Spike protein antigen (Z03501, Genscript) (SARS-CoV-2, UniProt P0DTC2 16-685); test: dot blot dipstick assay, gold nanoparticle conjugate without antibody
# T1 construct: also called SARS-CoV-2 Spike antigen; S antigen
# [2] = molecular target: Monoclonal antibody against the SARS-CoV-2 Nucleocapsid protein (A02039, Genscript)
# [3] = molecular target: Monoclonal antibody against the SARS-CoV-2 Spike protein (A02038, Genscript)
# [4] = molecular target: T2, recombinant SARS-CoV-2 Nucleocapsid protein antigen (Z03488, Genscript) (SARS-CoV-2, UniProt P0DTC9 1-419); test: dot blot dipstick, gold nanoparticles with EMT-003 alone
# T2 construct: also called SARS-CoV-2 Nucleocapsid antigen; NC
binder,measurement,setting,value
B1,binding result,[1],no binding (tested: 0.5 µg antigen spotted)
same,Kd,[2],0.258 nM
same,koff,[2],0.000149 s⁻¹
same,kon,[2],577000 M⁻¹ s⁻¹
same,Kd,[3],0.192 nM
same,koff,[3],0.000103 s⁻¹
same,kon,[3],537000 M⁻¹ s⁻¹
same,binding result,[4],no binding

# Reference: US20240036044A1 (GEMINA LABORATORIES, published 2024)
